Source: patent publication US20190144503A1 (REGENTS OF THE UNIVERSITY OF MINNESOTA, published 2019)
Read-outs that look alike come from different tables or passages of the source.

B1: Fn-AAZ clone 0.3.9 (fibronectin type III domain of SEQ ID NO: 4 conjugated to acetazolamide) (designed binder)
chain: MASSSDSPRNLEVTNATPNSLTISWDDSYCVIYYRITYGETGGNSPSQEFTVPGYTNSVTISGLKPGQDYTITVYAVTDYSKLDPSNPISINYRTEIDKPSQGS
modifications: acetazolamide (AAZ) conjugated through a maleimide-PEG linker to the single cysteine; PEG length not stated for this clone
notes: Expressed and purified clone, conjugated with maleimide-PEG-AAZ; also called second Fn-AAZ clone; second Fn-AAZ conjugate
B2: Clone 0.3.9 fibronectin type III domain (SEQ ID NO: 4) not conjugated to AAZ (designed binder)
chain: MASSSDSPRNLEVTNATPNSLTISWDDSYCVIYYRITYGETGGNSPSQEFTVPGYTNSVTISGLKPGQDYTITVYAVTDYSKLDPSNPISINYRTEIDKPSQGS
B3: Fn-AAZ clone 0.3.10 (fibronectin type III domain of SEQ ID NO: 3 conjugated to acetazolamide) (designed binder)
chain: MASSSDSPRNLEVTNATPNSLTISWDSYLDCAYYYRITYGETGGNSPSQEFTVPGYTNSVTISGLKPGQDYTITVYAVASSNDVSNPISINYRTEIDKPSQGS
modifications: acetazolamide (AAZ) conjugated through a maleimide-PEG linker to the single cysteine; PEG length not stated for this clone
notes: Expressed and purified clone, conjugated with maleimide-PEG-AAZ; also called first Fn-AAZ clone; first Fn-AAZ conjugate
B4: Clone 0.3.10 fibronectin type III domain (SEQ ID NO: 3) not conjugated to AAZ (designed binder)
chain: MASSSDSPRNLEVTNATPNSLTISWDSYLDCAYYYRITYGETGGNSPSQEFTVPGYTNSVTISGLKPGQDYTITVYAVASSNDVSNPISINYRTEIDKPSQGS

Legend:
[1] = target: T1, recombinant His-tagged human carbonic anhydrase 9 (human, UniProt Q16790 38-414); experiment: binding of the purified clone to CA9 (FIG. 14B); method not stated
[2] = target: T1, recombinant His-tagged human carbonic …; experiment: titration of the purified clone, Relative Binding to CA9 against concentration (x axis printed 'AAZ Concentration (nM)'); assay format not described
[3] = target: T1, recombinant His-tagged human carbonic …; experiment: as above; remark: listed apart in the source

Binder	fold higher affinity than the Fn not conjugated to AAZ [1]	Kd [2]	Kd [3]
B1	~6 fold	~30 nM	–
B2	–	170 nM	–
B3	–	–	60 nM
B4	–	–	600 nM
